According to article PMC4680927:

Assays:
[1] = target: N-acetyltransferase C-terminal region (CTR) of RmNag (Rhizomucor miehei); assay: not stated; NTR and CTR 'in solution'; the sentence names no method (it follows the SEC estimate for the full-length protein)
[2] = target: full-length β-N-acetylglucosaminidase from Rhizomucor miehei (RmNag) (Rhizomucor miehei); assay: SEC; size-exclusion chromatography of full-length RmNag; native molecular mass approx. 230 kDa; data not shown

Row | stoichiometry N [1] | stoichiometry N [2] | Substance
1 | 2 | – | N-acetyltransferase C-terminal region (CTR) of RmNag (domain or fragment)
2 | – | 2 | full-length β-N-acetylglucosaminidase from Rhizomucor miehei (RmNag) (enzyme)
